Experimental data: article PMC6801465, “Efficient Epidermal Growth Factor Receptor Targeting Oligonucleotide as a Potential Molecule for Targeted Cancer Therapy”

Experiments:
[1] = target: T1, EGFR recombinant protein (Sino Biological 10001-H08H) (human, UniProt P00533 25-645); assay: ELONA; 100 nM aptamer; Binding buffer: serum-free DMEM + 100 ug/mL tRNA; aptamers denatured 95 C 5 min, snap cooled on ice 10 min; ELONA 1 h (temperature not given); flow cytometry Kd; conditions: protein: commercial; label: 5'-biotin (ELONA)
[2] = target: T1, EGFR recombinant protein (Sino …); assay: ELONA; Binding buffer: serum-free DMEM + 100 ug/mL tRNA; aptamers denatured 95 C 5 min, snap cooled on ice 10 min; ELONA 1 h (temperature not given); flow cytometry Kd; conditions: protein: commercial, label: 5'-biotin (ELONA)

Row | Binder | binding result [1] | also measured
1 | UGCUUUGAUGUCGAUUCGACAGGAGGC (structured_RNA, none (all RNA)) [CL-4RNV617] | no binding | 
2 | TGCTTTGATGTCGATTCGACAGGAGGC (structured_DNA, none (all DNA)) [CL-4RNV618] | no binding | 
3 | UGCUUUGAUGUCGAUUCGACAGGAGGC (XNA, 2'-OMe on U, G, C; all A (positions 8, 14, 19, 21, 24) are DNA) [CL-4RNV616] |  | Kd ([2]; 5'-FAM (cells)): 18.2 nM
4 | GCCUUAGUAACGUGCUUUGAUGUCGAUUCGACAGGAGGC (XNA, 2'-F on all C and U; A and G are RNA) [CL-4] |  | Kd [2]: 13.3 nM
